Laboratory results from paper PMC9882070 (bioRxiv, 2023).

Assays:
Assay in all cases: ThT fluorescence aggregation assay + negative-stain TEM
[1] = target: R2R3Ac, R2R3 tau peptide chemically acetylated with N-succinimidyl acetate
[2] = target: R1R3Ac, R1R3 tau peptide chemically acetylated with N-succinimidyl acetate
[3] = target: the molecule itself

## R2R3Ac, R2R3 tau peptide chemically acetylated with N-succinimidyl acetate
[1]
  t1/2max of ThT aggregation: 98.9 h

## R1R3Ac, R1R3 tau peptide chemically acetylated with N-succinimidyl acetate
[2]
  t1/2max of ThT aggregation: 39.8 h

B1: R1R3_23Q tau peptide (peptide)
peptide: TENLKHQPGGGQVQIVYQ
[3]
  t1/2max of ThT aggregation: < 6 h

B2: R1R3_13Q tau peptide (peptide)
peptide: TENLQHQPGGGKVQIVYQ
[3]
  binding result: binds

B3: R1R2_12Q tau peptide (peptide)
peptide: TENLQHQPGGGQVQIINK
[3]
  t1/2max of ThT aggregation: < 36 h

B4: R2R3_3Q tau peptide (peptide)
peptide: KDNIKHVPGGGSVQIVYQ
[3]
  t1/2max of ThT aggregation: 3.84 h

B5: R1R3_12Q tau peptide (peptide)
peptide: TENLQHQPGGGQVQIVYK
[3]
  t1/2max of ThT aggregation: < 36 h

B6: R2R3_2Q tau peptide (peptide)
peptide: KDNIQHVPGGGSVQIVYK
[3]
  t1/2max of ThT aggregation: 72 ± 7.2 h
